Data published in publication PMC3259534.
Numbering of substitutions follows the chain as printed. Numbers in names are those of the source. One block for each binder: values may come before it.

Experiments:
[1] = target: MRG15 MRG polypeptide (residues 155–323), K201R background (human) (UniProt Q9UBU8); assay: NMR titration
MRG15 MRG V268A (human) = MRG15 MRG V268A (human) (UniProt Q9UBU8); assay: ITC
MRG15 MRG R201K (human) = MRG15 MRG R201K (human) (UniProt Q9UBU8); assay: ITC
MRG15 MRG M228A (human) = MRG15 MRG M228A (human) (UniProt Q9UBU8); assay: ITC
MRG15 MRG W172A (human) = MRG15 MRG W172A (human) (UniProt Q9UBU8); assay: ITC
MRG15 MRG M273A (human) = MRG15 MRG M273A (human) (UniProt Q9UBU8); assay: ITC
[2] = target: MRG15 MRG polypeptide (residues 155–323), K201R background (human) (UniProt Q9UBU8); assay: ITC
MRG15 MRG L287A (human) = MRG15 MRG L287A (human) (UniProt Q9UBU8); assay: ITC
MRG15 MRG V227A (human) = MRG15 MRG V227A (human) (UniProt Q9UBU8); assay: ITC

B2: Pf1 MBD (MRG-binding domain, residues 200–241) (domain or fragment)
chain: DYVQPQLRRPFELLIAAAMERNPTQFQLPNELTCTTALPGSS
Kd (MRG15 MRG V268A (human)): 184 nM
Kd (MRG15 MRG R201K (human)): 23 nM
Kd (MRG15 MRG M228A (human)): 75 nM
Kd (MRG15 MRG W172A (human)): 67 nM
Kd (MRG15 MRG M273A (human)): 96 nM
Kd [2]: 12 nM
Kd (MRG15 MRG L287A (human)): 407 nM
Kd (MRG15 MRG V227A (human)): 194 nM

B3: Pf1 MBD L212A (domain or fragment)
chain: B2 chain with L13A
Kd [2]: 35 nM

B4: Pf1 MBD L213A (domain or fragment)
chain: B2 chain with L14A
Kd [2]: 280 nM

B5: Pf1 MBD F210A (domain or fragment)
chain: B2 chain with F11A
Kd [2]: 2600 nM

B6: Pf1 MBD F225A (domain or fragment)
chain: B2 chain with F26A
Kd [2]: 19000 nM

B10: Pf1 (aa 114–258) (domain or fragment)
chain: ELGHVNGLVDKSGKRTTSPSSDTDLLDRSASKTELKAIAHARILERRASRPGTPTSSASTETPTSEQNDVDEDIIDVDEEPVAAEPDYVQPQLRRPFELLIAAAMERNPTQFQLPNELTCTTALPGSSKRRRKEETTGKNVKKTQ
Kd [2]: 16 nM

Results, then the binder that gave them:

Kd [1]: 119000 nM
B1: Pf1 peptide corresponding to the tail segment (residues 219–232) (peptide)
peptide: ERNPTQFQLPNELT

Kd [2]: 15 nM
B7: Pf1 MBD N221E (domain or fragment)
chain: B2 chain with N22E

Kd [2]: 85 nM
B8: Pf1 MBD P228A (domain or fragment)
chain: B2 chain with P29A

Kd [2]: 370 nM
B9: Pf1 MBD L227A (domain or fragment)
chain: B2 chain with L28A
